Test results as given in the supplement of paper PMC7877785.
± gives the uncertainty stated by the source.

Assay: self-splicing fitness, log relative to wild type (ln ratio); higher = more splicing; Tetrahymena group I intron in knt gene, E. coli kanamycin selection, DiMSum; sequences stand for … in CUCUCU…GGAGGGAAAAGUUAUCAGGCAUGCACCUGGUAGCUAGUCUUUAAACCAAUAGAUUGCAUCGGUUUAAAAGGCAAGACCGUCAAAUUGCGGGAAAGGGGUCAACAGCCGUUCAGUACCAAGUCUCAGGGGAAACUUUGAGAUGGCCUUGCAAAGGGUAUGGUAAUAAGCUGACGGACAUGGUCCUAACCACGCAGCCAAGUCCUAAGUCAACAGAUCUUCUGUUGAUAUGGAUGCAGUUCACAGACUAAAUGUCGGUCGGGGAAGAUGUAUUCUUCUCAUAAGAUAUAGUCGGACCUCUCCUUAAUGGGAGCUAGCGGAUGAAGUGAUGCAACACUGGAGCCGCUGGGAACUAAUUUGUAUGCGAAAGUAUAUUGAUUAGUUUUGGAGUACUCGUGGUCG
How it was run: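 Six replicate transformations of E. coli BL21(DE3) with a pET-22b(+) library were grown overnight at 37°C or 30°C. The library randomised all eight P1ex-region intron nucleotides, the intron lying in the knt kanamycin-resistance gene, and plates were LB agar with or without 25 μg/mL kanamycin plus 100 μg/mL carbenicillin, 50 μM IPTG and 0.2% rhamnose. Pooled colonies were amplicon-sequenced on an Illumina HiSeq 2500, and fitness is the DiMSum error-weighted combination of wild-type-normalised replicate fold changes, kanamycin versus none.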

Row | Sequence | self-splicing fitness (ln) (30 °C) | self-splicing fitness (ln) (37 °C)
1 | AUUUAGCAAUAUUACGUGGU | -2.91 ± 0.18 | -2.45 ± 0.29
2 | GAACAGCAAUAUUACGAGAU | -3.55 ± 0.12 | -1.4 ± 0.09
3 | GAAUAGCAAUAUUACGGAAC | -2.37 ± 0.16 | -0.0927 ± 0.15
4 | AAAGAGCAAUAUUACGUAGU | -2.39 ± 0.16 | -2.46 ± 0.22
5 | UAACAGCAAUAUUACGAGAC | -4.18 ± 0.26 | -2.78 ± 0.29
6 | CUACAGCAAUAUUACGCUCU | -4.15 ± 0.25 | -2.74 ± 0.29
7 | GAGUAGCAAUAUUACGCAAC | -3.77 ± 0.37 | -2.66 ± 0.36
8 | CGAUAGCAAUAUUACGGGGC | -3.2 ± 0.35 | -2.56 ± 0.39
9 | GAGUAGCAAUAUUACGAGAG | -3.63 ± 0.24 | -3.64 ± 0.27
10 | AAACAGCAAUAUUACGCACA | -0.828 ± 0.085 | 0.269 ± 0.1
11 | UCCAAGCAAUAUUACGGCAG | -4.85 ± 0.46 | -2.84 ± 0.28
12 | CUCUAGCAAUAUUACGAAGA |  | -2.75 ± 0.26
13 | ACUAAGCAAUAUUACGAGCU | -0.626 ± 0.079 | -0.478 ± 0.087
14 | GCAUAGCAAUAUUACGGAAU | -2.21 ± 0.16 | -1.84 ± 0.23
15 | CUGGAGCAAUAUUACGCAGA | -3.56 ± 0.37 | 
16 | UAACAGCAAUAUUACGGGUU | -3.91 ± 0.15 | -3.58 ± 0.19
17 | CACCAGCAAUAUUACGGAAG | -0.975 ± 0.049 | -0.0423 ± 0.072
18 | GAUUAGCAAUAUUACGAGAU | -3.12 ± 0.14 | -3.26 ± 0.19
19 | UGGUAGCAAUAUUACGCCUC | -1.82 ± 0.39 | -2.03 ± 0.39
20 | CUUAAGCAAUAUUACGGGCG | -0.789 ± 0.13 | -0.48 ± 0.14
21 | UCACAGCAAUAUUACGGCGA | 0.0998 ± 0.092 | 0.202 ± 0.094
22 | AAGGAGCAAUAUUACGGCUU | -2.58 ± 0.25 | -1.64 ± 0.28
23 | AGUAAGCAAUAUUACGAUGA | -2.3 ± 0.16 | -1.03 ± 0.13
24 | ACGGAGCAAUAUUACGGGAU | -1.84 ± 0.14 | -1.83 ± 0.2
25 | AGACAGCAAUAUUACGAUAC | -2.64 ± 0.27 | -1.79 ± 0.25
26 | GUCAAGCAAUAUUACGAGUU | -3.15 ± 0.15 | -0.638 ± 0.093

Row | Sequence | self-splicing fitness (ln) (30 °C) | self-splicing fitness (ln) (37 °C)
27 | UGUAAGCAAUAUUACGACGU | -1.29 ± 0.11 | -0.138 ± 0.13
28 | AAUAAGCAAUAUUACGCUCC | -1.46 ± 0.23 | -0.799 ± 0.24
29 | ACCGAGCAAUAUUACGGGAU | -3.29 ± 0.13 | -2.5 ± 0.15
30 | GUCCAGCAAUAUUACGCACA | -1 ± 0.16 | 0.0214 ± 0.12
31 | UCCAAGCAAUAUUACGGUAG | -4.7 ± 0.41 | -2.21 ± 0.16
32 | ACGGAGCAAUAUUACGUCUC | -4.93 ± 0.32 | -1.94 ± 0.15
33 | ACCAAGCAAUAUUACGACAA | -2.14 ± 0.15 | -1.11 ± 0.12
34 | GAGCAGCAAUAUUACGCAAU | -1.89 ± 0.12 | -1.53 ± 0.2
35 | ACACAGCAAUAUUACGCUGG | -1.21 ± 0.063 | -1.33 ± 0.091
36 | AAGCAGCAAUAUUACGUAAG | -1.49 ± 0.074 | -1.02 ± 0.088
37 | UCAUAGCAAUAUUACGGCAU | -3.91 ± 0.35 | -2.04 ± 0.23
38 | UUGCAGCAAUAUUACGGCCG | -1.21 ± 0.096 | -0.459 ± 0.12
39 | CGUAAGCAAUAUUACGUUGG | -1.93 ± 0.12 | -0.912 ± 0.13
40 | AGUUAGCAAUAUUACGCGGA | -0.823 ± 0.29 | -0.581 ± 0.14
41 | GUGUAGCAAUAUUACGGAGA |  | -2.36 ± 0.45
42 | CCUAAGCAAUAUUACGUAUA | -3 ± 0.15 | -2.67 ± 0.17
43 | UUCGAGCAAUAUUACGCUUU | -3.89 ± 0.26 | -2.56 ± 0.21
44 | GUCUAGCAAUAUUACGGUAU | -0.441 ± 0.1 | 0.315 ± 0.11
45 | CAUUAGCAAUAUUACGUGGA | -3.35 ± 0.19 | -2.13 ± 0.13
46 | AACCAGCAAUAUUACGGGUU | -2.89 ± 0.078 | -3.19 ± 0.13
47 | AUCGAGCAAUAUUACGGUGC | -2.54 ± 0.16 | -3.15 ± 0.43
48 | UUCUAGCAAUAUUACGGUAA | -1.17 ± 0.13 | -0.408 ± 0.085
49 | UCGAAGCAAUAUUACGGCUA | -2.29 ± 0.15 | -1.41 ± 0.099
50 | UCCGAGCAAUAUUACGACAG | -3.18 ± 0.3 | -2.55 ± 0.3
51 | ACCAAGCAAUAUUACGCUCC | -1.35 ± 0.17 | -0.621 ± 0.25
52 | GCGCAGCAAUAUUACGGCGC | -2.58 ± 0.21 | -1.98 ± 0.24

Row | Sequence | self-splicing fitness (ln) (30 °C) | self-splicing fitness (ln) (37 °C)
53 | GCUGAGCAAUAUUACGUGAA | -2.63 ± 0.22 | -1.35 ± 0.23
54 | CACUAGCAAUAUUACGCUCC |  | -1.46 ± 0.2
55 | CUCCAGCAAUAUUACGUUCU | -2.89 ± 0.15 | -3.65 ± 0.46
56 | AAAUAGCAAUAUUACGCUAU | -2.9 ± 0.18 | -2.22 ± 0.34
57 | GGGCAGCAAUAUUACGUCAG | -1.19 ± 0.087 | -0.138 ± 0.11
58 | CCAAAGCAAUAUUACGGCUC | -3.44 ± 0.29 | -2.32 ± 0.25
59 | CUAGAGCAAUAUUACGUCGG | -0.971 ± 0.095 | -0.975 ± 0.1
60 | AAAUAGCAAUAUUACGAGGG | -3.73 ± 0.19 | -3.61 ± 0.22
61 | ACGGAGCAAUAUUACGUUCA | -1.94 ± 0.18 | -0.749 ± 0.13
62 | ACCGAGCAAUAUUACGGGCA | -0.957 ± 0.1 | -0.109 ± 0.11
63 | AAGGAGCAAUAUUACGUAUA | -2.76 ± 0.21 | -2.85 ± 0.29
64 | CAAAAGCAAUAUUACGAGGA | -3.08 ± 0.19 | -2.14 ± 0.15
65 | CGCGAGCAAUAUUACGUUGA | -3.51 ± 0.25 | -2.05 ± 0.2
66 | UUCGAGCAAUAUUACGAUCU | -2.66 ± 0.19 | -1.83 ± 0.23
67 | CUAAAGCAAUAUUACGUGUU | -4.79 ± 0.19 | -2.91 ± 0.16
68 | CUCUAGCAAUAUUACGUGCC | -3.23 ± 0.28 | -3.62 ± 0.39
69 | AGGGAGCAAUAUUACGUAUC | -2.16 ± 0.25 | 
70 | GAAGAGCAAUAUUACGGACA | -1.14 ± 0.24 | 0.342 ± 0.24
71 | GCAGAGCAAUAUUACGACUA | -2.45 ± 0.27 | -2.12 ± 0.24
72 | AGAGAGCAAUAUUACGAAAG | -4.41 ± 0.27 | -2.42 ± 0.22
73 | GCUUAGCAAUAUUACGGAAU | -1.15 ± 0.062 | 0.0941 ± 0.077
74 | GGUUAGCAAUAUUACGGAAG |  | -2.49 ± 0.36
75 | AAUGAGCAAUAUUACGGAAG | -3.49 ± 0.3 | -2.63 ± 0.23
76 | ACAGAGCAAUAUUACGAAUG | -3.82 ± 0.16 | -2.51 ± 0.19
77 | UCUAAGCAAUAUUACGCGUU | -4.04 ± 0.34 | -2.77 ± 0.38
